# Measurements from publication PMC13354579.
# Assays:
# K48-linked triubiquitin = K48-linked triubiquitin (UniProt P0CG48); assay: ITC; MicroCal PEAQ-ITC, 25 °C, 50 mM Tris-HCl pH 7.5, 150 mM NaCl, 250 µM TCEP; DUB in the syringe titrated into K48-linked polyUb in the cell, in other experiments the scarcest species in the cell; n = 2, mean ± SD
# [1] = biological target: full-length MINDY3 (human) (UniProt Q9H8M7); assay: as above
# Chain of full-length MINDY3 (human) (Q9H8M7 whole entry): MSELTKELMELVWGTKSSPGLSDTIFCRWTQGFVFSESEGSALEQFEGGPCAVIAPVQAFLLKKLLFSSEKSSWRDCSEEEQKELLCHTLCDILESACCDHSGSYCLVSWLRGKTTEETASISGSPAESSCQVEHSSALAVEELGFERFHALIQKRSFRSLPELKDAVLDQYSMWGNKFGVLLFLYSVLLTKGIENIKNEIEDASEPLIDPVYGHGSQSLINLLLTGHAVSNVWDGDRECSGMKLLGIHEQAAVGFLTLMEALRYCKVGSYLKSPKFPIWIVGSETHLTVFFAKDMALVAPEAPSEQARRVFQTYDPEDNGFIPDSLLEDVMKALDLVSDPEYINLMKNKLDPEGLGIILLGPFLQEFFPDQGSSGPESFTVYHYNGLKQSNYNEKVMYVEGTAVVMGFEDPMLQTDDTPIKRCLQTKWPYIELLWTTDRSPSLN
Kd (K48-linked triubiquitin) [µM],Kd [1] [µM],dH [1] [kcal/mol],Substance
6,,,MINDY3^EF-hand (from UniProt Q9H8M7 297-370) (domain or fragment)
,12.2,-1.16,full-length RAD23A (from UniProt P54725 1-363) (natural protein)
